Source: patent US20240117334A1 (VERTEX PHARMACEUTICALS, published 2024)
Changes are numbered by the printed parent chain. Names and notes keep the numbering of the source. Values joined by “and” are separate entries in the source; they are usually repeats but may differ in a detail not shown here. Identical values can stand only once.

T1: Plasma antichymotrypsin (ACT) (UniProt P01011 24-423)
T1 construct: also called plasma ACT
T1 sequence (looked up): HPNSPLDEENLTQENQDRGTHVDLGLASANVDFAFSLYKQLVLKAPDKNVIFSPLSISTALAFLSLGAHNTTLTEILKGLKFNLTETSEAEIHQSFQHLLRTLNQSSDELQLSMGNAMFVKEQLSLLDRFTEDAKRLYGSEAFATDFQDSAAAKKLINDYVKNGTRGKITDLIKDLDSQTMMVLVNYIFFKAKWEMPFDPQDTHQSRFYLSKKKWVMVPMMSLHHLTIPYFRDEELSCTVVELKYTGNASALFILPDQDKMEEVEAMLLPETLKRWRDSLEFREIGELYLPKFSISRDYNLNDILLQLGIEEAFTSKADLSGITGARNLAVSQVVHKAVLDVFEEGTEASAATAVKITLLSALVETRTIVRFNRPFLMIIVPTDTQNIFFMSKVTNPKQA

B1: chymase C22S/K40L/F41K/L99N/F173Y/S218L/A226R (enzyme)
chain: IIGGTESKPHSRPYMAYLEIVTSNGPSLKCGGFLIRRNFVLTAAHCAGRSITVTLGAHNITEEEDTWQKLEVIKQFRHPKYNTSTNHHDIMLLKLKEKASLTLAVGTLPFPSQFNFVPPGRMCRVAGWGRTGVLKPGSDTLQEVKLRLMDPQACSHYRDFDHNLQLCVGNPRKTKSAFKGDSGGPLLCAGVAQGIVSYGRLDAKPPRVFTRISHYRPWINQILQAN
B2: chymase C22S (enzyme)
chain: B1 chain with L28K, K29F, N86L, Y157F, L201S, R207A
notes: For all chymase variants: mutation names are in chymotrypsin numbering
B3: chymase C22S/A190S/A226R (enzyme)
chain: B1 chain with L28K, K29F, N86L, Y157F, A177S, L201S
B4: chymase C22S/A226R (enzyme)
chain: B1 chain with L28K, K29F, N86L, Y157F, L201S
B5: chymase C22S/F173Y/D175N/A226R (enzyme)
chain: B1 chain with L28K, K29F, N86L, D159N, L201S
notes: also called MS No. 18
B6: chymase C22S/K40L/F41H/L99N/F173Y/D175N/S218L/A226R (enzyme)
chain: B1 chain with K29H, D159N
notes: also called MS No. 16
B7: chymase C22S/K40L/F41H/L99N/F173Y/S218L/A226R (enzyme)
chain: B1 chain with K29H
B8: chymase C22S/K40L/F41K/L99H/F173Y/S218L/A226R (enzyme)
chain: B1 chain with N86H
B9: chymase C22S/K40L/F41K/L99H/G151S/F173Y/S218L/A226R (enzyme)
chain: B1 chain with N86H, G137S
B10: chymase C22S/K40L/F41K/L99N/F173Y/D175N/S218L/A226R (enzyme)
chain: B1 chain with D159N
notes: also called MS No. 8
B11: chymase C22S/K40L/F41L/L99N/G151H/F173Y/S218V/A226R (enzyme)
chain: B1 chain with K29L, G137H, L201V
B12: chymase C22S/K40L/F41R/L99N/F173Y/D175N/S218L/A226R (enzyme)
chain: B1 chain with K29R, D159N
notes: also called MS No. 15
B13: chymase C22S/K40L/F41R/L99N/F173Y/S218L/A226R (enzyme)
chain: B1 chain with K29R
B14: chymase C22S/K40M/F41R/L99N/G151S/F173Y/S218L/A226R (enzyme)
chain: B1 chain with L28M, K29R, G137S
B15: chymase C22S/S189T/A190S/A226R (enzyme)
chain: B1 chain with L28K, K29F, N86L, Y157F, S176T, A177S, L201S
B16: chymase C22S/L99H/F173L/K192R/Y215H/R217T/S218V/A226R (enzyme)
chain: B1 chain with L28K, K29F, N86H, Y157L, K179R, Y198H, R200T, L201V
B17: chymase C22S/L99H/F173I/K192R/Y215K/R217T/S218I/A226R (enzyme)
chain: B1 chain with L28K, K29F, N86H, Y157I, K179R, Y198K, R200T, L201I
B18: chymase C22S/F41I/L99W/G151L/F173K/R217S/A226R (enzyme)
chain: B1 chain with L28K, K29I, N86W, G137L, Y157K, R200S, L201S
B19: chymase C22S/F41R/L99G/G151T/F173Y/Y215R/R217M/A226R (enzyme)
chain: B1 chain with L28K, K29R, N86G, G137T, Y198R, R200M, L201S
B20: chymase C22S/F41R/L99H/G151T/F173Y/Y215K/R217M/A226R (enzyme)
chain: B1 chain with L28K, K29R, N86H, G137T, Y198K, R200M, L201S
B21: chymase C22S/F41R/L99Y/G151T/F173K/R217S/A226R (enzyme)
chain: B1 chain with L28K, K29R, N86Y, G137T, Y157K, R200S, L201S
B22: chymase C22S/F41V/L99F/G151R/F173K/R217S/A226R (enzyme)
chain: B1 chain with L28K, K29V, N86F, G137R, Y157K, R200S, L201S
B23: chymase C22S/F41V/L99H/G151R/F173L/Y215R/R217T/A226R (enzyme)
chain: B1 chain with L28K, K29V, N86H, G137R, Y157L, Y198R, R200T, L201S
B24: chymase F41V/L99H/G151V/F173Y/Y215K/R217G/A226R (enzyme)
chain: B1 chain with S7C, L28K, K29V, N86H, G137V, Y198K, R200G, L201S
B25: chymase C22S/F41V/L99W/G151L/F173K/R217S/A226R (enzyme)
chain: B1 chain with L28K, K29V, N86W, G137L, Y157K, R200S, L201S
B26: chymase C22S/K192R/A226R (enzyme)
chain: B1 chain with L28K, K29F, N86L, Y157F, K179R, L201S
B27: chymase C22S/L99H/F173Y/K192R/S218L/A226R (enzyme)
chain: B1 chain with L28K, K29F, N86H, K179R
B28: chymase C22S/L99Y/F173Y/K192R/S218L/A226R (enzyme)
chain: B1 chain with L28K, K29F, N86Y, K179R
B29: chymase C22S/P38Q/V138I/V183I/L199V/A226R/F228V (enzyme)
chain: B1 chain with P26Q, L28K, K29F, N86L, V125I, Y157F, V168I, L186V, L201S, F209V
B30: MTSP-1 A77aT/F94Y/C122S/D125G (enzyme)
chain: VVGGTDADEGEWPWQVSLHALGQGHICGASLISPNWLVSAAHCYIDDRGFRYSDPTQWTAFLGLHDQSQRSTPGVQERRLKRIISHPFYNDFTFDYDIALLELEKPAEYSSMVRPISLPGASHVFPAGKAIWVTGWGHTQYGGTGALILQKGEIRVINQTTCENLLPQQITPRMMCVGFLSGGVDSCQGDSGGPLSSVEADGRIFQAGVVSWGDGCAQRNKPGVYTRLPLFRDWIKENTGV
B31: MTSP-1 I41A/F97D/F99L/C122S (enzyme)
chain: B30 chain with I26A, T72A, Y89F, F92D, F94L, G120D
B32: MTSP-1 I41G/F97D/F99L/C122S/Y146D/C[17]S/C[19]S (enzyme)
chain: B30 chain with I26G, T72A, Y89F, F92D, F94L, G120D, Y141D
B33: MTSP-1 I41G/F97E/F99L/C122S/C[17]S/C[19]S (enzyme)
chain: B30 chain with I26G, T72A, Y89F, F92E, F94L, G120D
B34: MTSP-1 I41N/F97D/F99L/C122S/C[17]S/C[19]S (enzyme)
chain: B30 chain with I26N, T72A, Y89F, F92D, F94L, G120D
B35: MTSP-1 F97L/T98G/F99V/C122S/C[17]S/C[19]S/-null_D96insD (enzyme)
chain: VVGGTDADEGEWPWQVSLHALGQGHICGASLISPNWLVSAAHCYIDDRGFRYSDPTQWTAFLGLHDQSQRSAPGVQERRLKRIISHPFFNDDLGVDYDIALLELEKPAEYSSMVRPISLPDASHVFPAGKAIWVTGWGHTQYGGTGALILQKGEIRVINQTTCENLLPQQITPRMMCVGFLSGGVDSCQGDSGGPLSSVEADGRIFQAGVVSWGDGCAQRNKPGVYTRLPLFRDWIKENTGV

Target: T2, Human Factor B (human, UniProt P00751 26-764)
Test: cell-based or functional assay

T2 sequence (P00751 26-764 limits assumed): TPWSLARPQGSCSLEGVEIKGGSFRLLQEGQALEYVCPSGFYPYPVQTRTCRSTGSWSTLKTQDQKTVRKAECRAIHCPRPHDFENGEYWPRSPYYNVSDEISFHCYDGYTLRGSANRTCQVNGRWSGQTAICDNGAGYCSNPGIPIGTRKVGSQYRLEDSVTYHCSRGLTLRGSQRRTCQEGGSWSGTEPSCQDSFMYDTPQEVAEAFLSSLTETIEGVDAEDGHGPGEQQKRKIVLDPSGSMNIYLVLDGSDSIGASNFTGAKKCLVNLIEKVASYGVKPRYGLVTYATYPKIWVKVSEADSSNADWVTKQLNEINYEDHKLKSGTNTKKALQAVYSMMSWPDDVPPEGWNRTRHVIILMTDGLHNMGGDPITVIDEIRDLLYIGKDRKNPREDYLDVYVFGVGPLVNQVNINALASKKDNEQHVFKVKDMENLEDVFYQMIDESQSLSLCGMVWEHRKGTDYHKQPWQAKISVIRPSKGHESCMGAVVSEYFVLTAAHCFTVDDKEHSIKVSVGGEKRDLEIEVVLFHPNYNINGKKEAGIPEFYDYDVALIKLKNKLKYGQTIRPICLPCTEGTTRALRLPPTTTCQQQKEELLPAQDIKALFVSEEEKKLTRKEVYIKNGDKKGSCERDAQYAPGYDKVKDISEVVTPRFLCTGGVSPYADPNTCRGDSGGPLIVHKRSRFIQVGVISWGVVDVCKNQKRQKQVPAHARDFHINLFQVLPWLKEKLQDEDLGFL

Binder | fB Cleavage, 80% plasma EC50 | fB Cleavage EC50 | fB Cleavage, 64% A2M-depl plasma EC50 [µM] | fB Cleavage, 64% plasma EC50 [µM]
B1 | 14 µM |  |  | 
B2 | 10.2 µM | 0.265 µM | 1.52 | 7.88
B3 |  | 0.407 µM |  | 
B4 |  | 5.21 µM |  | 
B5 | 11.2 µM |  | 1.65 | 
B6 | 5.07 µM | 0.139 µM |  | 
B7 | 13.9 µM |  |  | 
B8 | 14.8 µM |  |  | 
B9 | 17.2 µM |  |  | 
B10 | 5.7 µM |  |  | 
B11 | 17.1 µM |  |  | 
B12 | 4.09 µM and 3.76 µM | 0.119 µM |  | 
B13 | 15.6 µM | 0.379 µM |  | 
B14 | 11.2 µM |  |  | 
B15 |  | 0.605 µM |  | 
B16 |  | 7.77 µM and 2.74 µM |  | 
B17 |  | 5.62 µM |  | 
B18 |  | 1.74 µM |  | 
B19 |  | 4.33 µM |  | 
B20 |  | 1.69 µM |  | 
B21 |  | 3.45 µM |  | 
B22 |  | 3.65 µM |  | 
B23 |  | 8.06 µM |  | 
B24 |  | 7.77 µM |  | 
B25 |  | 1.94 µM |  | 
B26 |  | 6.37 µM |  | 
B27 |  | 1.15 µM |  | 
B28 |  | 1.02 µM |  | 

Target: T1, Plasma antichymotrypsin (ACT)
Test: serpin inhibition of the protease

Binder | kapp [M⁻¹ s⁻¹]
B1 | 197
B2 | 31200
B3 | 1600
B4 | 1040
B5 | 428
B6 | 40
B7 | 193
B8 | 147
B9 | 139
B10 | 28
B11 | 252
B12 | 37
B13 | 190
B14 | 317
B29 | 269
B15 | 935

Target: T2, Human Factor B
Test: cell-based or functional assay
Remark: another data set of the same source

Binder | Hu fB Add-Back EC50
B30 | 0.0659 µM and 0.125 µM
B31 | 0.283 µM
B32 | 0.283 µM and 0.395 µM
B33 | 0.362 µM and 0.357 µM and 0.292 µM
B34 | 0.223 µM
B35 | 4.59 µM and 3.49 µM
